Test results taken from US20250197467A1.
Numbering of substitutions follows the chain as printed.

B1: C324 + MMP9 (ligand)
chain: YFGKLKSKLSIIRNLNDQVLFIDQGNRPLFEDMTDSDARDNAPRTIFIISMYADSQPRGMAVAISVKCEKISTLSAENKIISFKEMNPPDNIKDTKSDIIFFQRSVPGHDNKMQFESSSYEGYFLAAEKERDLFKLILKKEDELGDRSIMFTVQNED
B2: C323 (ligand)
chain: MAAEPVEDNSINFVAMKFIDNTLYFIAEDDENLESDRGRRVANLVGGSGYFGKLKSKLSIIRNLNDQVLFIDQGNRPLFEDMTDSDARDNAPRTIFIISMYADSQPRGMAVAISVKCEKISTLSAENKIISFKEMNPPDNIKDTKSDIIFFQRSVPGHDNKMQFESSSYEGYFLAAEKERDLFKLILKKEDELGDRSIMFTVQNED
B3: C325 (ligand)
chain: B2 chain with V41P, A42L, N43G, V45A
B4: C326 (ligand)
chain: MAAEPVEDNSINFVAMKFIDNTLYFIAEDDENLESDRGRRVANPLGLAGSGYFGKLKSKLSIIRNLNDQVLFIDQGNRPLFEDMTDSDARDNAPRTIFIISMYADSQPRGMAVAISVKCEKISTLSAENKIISFKEMNPPDNIKDTKSDIIFFQRSVPGHDNKMQFESSSYEGYFLAAEKERDLFKLILKKEDELGDRSIMFTVQNED
B5: C316 + Matriptase (ligand)
chain: MAAEPVEDNSINFVAMKFIDNTLYFIAEDDENLESDSGRVANLVGYFGKLKSKLSIIRNLNDQVLFIDQGNRPLFEDMTDSDARDNAPRTIFIISMYADSQPRGMAVAISVKCEKISTLSAENKIISFKEMNPPDNIKDTKSDIIFFQRSVPGHDNKMQFESSSYEGYFLAAEKERDLFKLILKKEDELGDRSIMFTVQNED
B6: C325 + MMP9 (ligand)
chain: LAGGSGYFGKLKSKLSIIRNLNDQVLFIDQGNRPLFEDMTDSDARDNAPRTIFIISMYADSQPRGMAVAISVKCEKISTLSAENKIISFKEMNPPDNIKDTKSDIIFFQRSVPGHDNKMQFESSSYEGYFLAAEKERDLFKLILKKEDELGDRSIMFTVQNED
B7: C326 + MMP9 (ligand)
chain: LAGSGYFGKLKSKLSIIRNLNDQVLFIDQGNRPLFEDMTDSDARDNAPRTIFIISMYADSQPRGMAVAISVKCEKISTLSAENKIISFKEMNPPDNIKDTKSDIIFFQRSVPGHDNKMQFESSSYEGYFLAAEKERDLFKLILKKEDELGDRSIMFTVQNED
B8: C318 + Matriptase (ligand)
chain: MAAEPVEDNSINFVAMKFIDNTLYFIAEDDENLESDSGRVANYFGKLKSKLSIIRNLNDQVLFIDQGNRPLFEDMTDSDARDNAPRTIFIISMYADSQPRGMAVAISVKCEKISTLSAENKIISFKEMNPPDNIKDTKSDIIFFQRSVPGHDNKMQFESSSYEGYFLAAEKERDLFKLILKKEDELGDRSIMFTVQNED

Target: His-tagged human IL-18BP (human) (UniProt O95998)
Sequence (O95998 31-194): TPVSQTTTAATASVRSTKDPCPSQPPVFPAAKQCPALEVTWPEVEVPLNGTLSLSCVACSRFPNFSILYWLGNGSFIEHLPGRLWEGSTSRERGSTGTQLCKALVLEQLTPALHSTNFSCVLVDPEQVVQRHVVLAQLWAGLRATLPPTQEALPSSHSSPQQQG
Test: AlphaLISA of free IL-18BP

Point of comparison: B3, Kd 1880 nM. Against it:
- B1 — 52-fold lower, 36.5 nM
- B2 — 4.5-fold higher, 8550 nM
- B4 — within 1.5-fold, 2100 nM
- B5 — 2.6-fold lower, 723 nM
- B6 — 12-fold lower, 158 nM
- B7 — 14-fold lower, 139 nM
- B8 — 3.2-fold lower, 586 nM
